Earlier results, collected in article PMC4896244.

Target: Connexin 43 CT (UniProt P23242)
UniProt P23242, sequence (P23242 255-382): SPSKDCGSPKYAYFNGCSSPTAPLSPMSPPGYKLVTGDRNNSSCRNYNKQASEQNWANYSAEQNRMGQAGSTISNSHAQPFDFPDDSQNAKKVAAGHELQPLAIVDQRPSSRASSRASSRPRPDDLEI

Kd: 300 µM
Substance: CIP75 UBA (from UniProt Q99NB8)
